Assay results reported in the supplement of paper PMC7877785.
± gives the uncertainty stated by the source.

Experiment: self-splicing fitness, log relative to wild type (ln ratio); higher = more splicing; Tetrahymena group I intron in knt gene, E. coli kanamycin selection, DiMSum; sequences stand for … in CUCUCU…GGAGGGAAAAGUUAUCAGGCAUGCACCUGGUAGCUAGUCUUUAAACCAAUAGAUUGCAUCGGUUUAAAAGGCAAGACCGUCAAAUUGCGGGAAAGGGGUCAACAGCCGUUCAGUACCAAGUCUCAGGGGAAACUUUGAGAUGGCCUUGCAAAGGGUAUGGUAAUAAGCUGACGGACAUGGUCCUAACCACGCAGCCAAGUCCUAAGUCAACAGAUCUUCUGUUGAUAUGGAUGCAGUUCACAGACUAAAUGUCGGUCGGGGAAGAUGUAUUCUUCUCAUAAGAUAUAGUCGGACCUCUCCUUAAUGGGAGCUAGCGGAUGAAGUGAUGCAACACUGGAGCCGCUGGGAACUAAUUUGUAUGCGAAAGUAUAUUGAUUAGUUUUGGAGUACUCGUGGUCG
Summary of the method: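 The eight P1ex-region nucleotides of an intron in the knt kanamycin-resistance gene on pET-22b(+) were all randomised and the library put into E. coli BL21(DE3). Six replicate transformations were grown overnight at 37°C or 30°C on LB agar with or without 25 μg/mL kanamycin, together with 100 μg/mL carbenicillin, 50 μM IPTG and 0.2% rhamnose. Colonies were pooled and amplicon-sequenced on an Illumina HiSeq 2500. Fitness from DiMSum is the error-weighted combination of wild-type-normalised replicate fold changes, kanamycin over none.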

Row | Sequence | self-splicing fitness (ln) (30 °C) | self-splicing fitness (ln) (37 °C)
1 | GGGCAGCAAUAUUACGGCCA | 0.461 ± 0.14 | 0.258 ± 0.17
2 | CGCCAGCAAUAUUACGAAUC | -2.75 ± 0.16 | -2.92 ± 0.26
3 | UCGGAGCAAUAUUACGUGUU | -3.26 ± 0.24 | -2.25 ± 0.26
4 | GCAUAGCAAUAUUACGCAUC | -3.1 ± 0.23 | -3.22 ± 0.27
5 | AGUGAGCAAUAUUACGGGAG | -5.04 ± 0.41 | -2.38 ± 0.14
6 | UUGAAGCAAUAUUACGUUGA | -0.405 ± 0.093 | -0.404 ± 0.11
7 | GCCAAGCAAUAUUACGGCUG | -3.81 ± 0.13 | -3.25 ± 0.19
8 | UCUAAGCAAUAUUACGCUCG | -1.43 ± 0.2 | -1.36 ± 0.18
9 | GCAAAGCAAUAUUACGUCAU | -2.25 ± 0.096 | -1.37 ± 0.091
10 | AUCGAGCAAUAUUACGGUUG | -3.96 ± 0.42 | -3.32 ± 0.37
11 | ACGCAGCAAUAUUACGGAAG | -3.57 ± 0.24 | -1.75 ± 0.16
12 | CGGAAGCAAUAUUACGGUCG | -1.55 ± 0.099 | -0.978 ± 0.12
13 | UUGCAGCAAUAUUACGGCUA | 0.128 ± 0.045 | 0.358 ± 0.06
14 | GUACAGCAAUAUUACGGCAG | -4.02 ± 0.2 | -2.33 ± 0.17
15 | CCGUAGCAAUAUUACGGCCA | – | -2.19 ± 0.35
16 | CGGCAGCAAUAUUACGACCC | -0.681 ± 0.19 | 0.752 ± 0.29
17 | UCCAAGCAAUAUUACGUGAC | -3.7 ± 0.3 | -3.17 ± 0.35
18 | ACACAGCAAUAUUACGCUCU | -0.902 ± 0.069 | -0.159 ± 0.075
19 | GGUGAGCAAUAUUACGCGGU | – | -1.5 ± 0.42

Row | Sequence | self-splicing fitness (ln) (30 °C) | self-splicing fitness (ln) (37 °C)
20 | UGACAGCAAUAUUACGGCUG | -2.28 ± 0.18 | -0.623 ± 0.15
21 | ACUGAGCAAUAUUACGCUUC | -3.57 ± 0.24 | -3.1 ± 0.28
22 | UGCCAGCAAUAUUACGCAGG | -4.43 ± 0.33 | -3.14 ± 0.28
23 | GAGCAGCAAUAUUACGACUG | -1.75 ± 0.11 | -2.01 ± 0.18
24 | CGUGAGCAAUAUUACGAGCG | -3.57 ± 0.3 | -2.52 ± 0.29
25 | UGCAAGCAAUAUUACGACGG | -0.954 ± 0.074 | -0.946 ± 0.079
26 | GAAAAGCAAUAUUACGCUAG | -1.8 ± 0.076 | -1.57 ± 0.099
27 | CGAGAGCAAUAUUACGUUUC | -2.76 ± 0.25 | -2.59 ± 0.27
28 | AGCGAGCAAUAUUACGGGCC | -3.58 ± 0.47 | -2.88 ± 0.43
29 | AAUGAGCAAUAUUACGAUUG | -1.99 ± 0.38 | -1.14 ± 0.26
30 | CGGCAGCAAUAUUACGAAGU | -3.35 ± 0.28 | -0.302 ± 0.2
31 | GACUAGCAAUAUUACGUGAU | -1.83 ± 0.078 | -0.383 ± 0.087
32 | CUAAAGCAAUAUUACGCCGG | -0.951 ± 0.16 | -0.177 ± 0.18
33 | CGCGAGCAAUAUUACGUUAA | -3.18 ± 0.16 | -4.09 ± 0.36
34 | GAAAAGCAAUAUUACGCUGA | -1.91 ± 0.24 | -1.65 ± 0.21
35 | AGUUAGCAAUAUUACGAGAC | -3.11 ± 0.26 | -2.02 ± 0.27
36 | AGCCAGCAAUAUUACGCCAU | -1.5 ± 0.2 | -1.89 ± 0.32
37 | GAAGAGCAAUAUUACGCAUG | -3.45 ± 0.47 | -2.36 ± 0.33
38 | UUUCAGCAAUAUUACGAAGA | -0.653 ± 0.24 | -0.0649 ± 0.25
